# Reference: publication PMC12298160, “Integrated Transcriptomic and Proteomic Analyses Reveal CsrA-Mediated Regulation of Virulence and Metabolism in Vibrio alginolyticus”
# Biological target: CsrA (6xHis-CsrA) (UniProt A0A2I3CA03 1-65)
# Assay: EMSA; high affinity
# Settings: protein: recombinant; tags: 6xHis (named 6xHis-CsrA); chain copies: 2; label: biotin
binder,measurement,value
rraA -64 to +36 RNA (ssRNA) RNA: AAGGUAUAGAAAAGGAUACUGCUCACUGAAGCAACGCUUGGGUGAGAAAAUUCACGGAGGAAAUAUGAGAGACAUUACACCCGAUAUUUGUGACCAAUUU,binding result,binds
